Results on 13 substances are retold here after publication PMC9293779, “Elucidation of binding preferences of YEATS domains to site-specific acetylated nucleosome core particles” (The Journal of Biological Chemistry, 2022).

The subject of one series is AF9-YEATS (human). In words: MST. The note with it: NCP plate assay: 10 mM Tris-HCl pH 7.5, 150 mM NaCl, 25 C, 1 h, 5 pmol NCP, 25 pmol protein, MST buffer not in material.
Another series concerns YEATS2-YEATS (human). The series is described as follows: MST. The note with it: NCP plate assay: 10 mM Tris-HCl pH 7.5, 150 mM NaCl, 25 C, 1 h, 5 pmol NCP, 25 pmol protein; MST buffer not in material.
The subject of another series is GAS41-YEATS (human). In words: MST. The note with it: NCP plate assay: 10 mM Tris-HCl pH 7.5, 150 mM NaCl, 25 C, 1 h, 5 pmol NCP, 25 pmol protein; MST buffer not in material.
A further series has as its system AF9-YEATS E57A (human). In words: MST. The note with it: NCP plate assay: 10 mM Tris-HCl pH 7.5, 150 mM NaCl, 25 C, 1 h, 5 pmol NCP, 25 pmol protein, MST buffer not in material.
The target in series [1] is unmodified nucleosome core particle (NCP) (human) (UniProt P04908). The series is described as follows: MST; YEATS domain labelled with a His-tag labeling kit; 10 mM Hepes-NaOH pH 7.4, 150 mM NaCl; room temperature; Monolith NT.115; fitted to the Hill equation, K1/2 = half-saturation concentration; biological triplicate.
Series [2] addresses H4K8/K12-diacetylated NCP (human) (UniProt P04908). Described as above.
Series [3] deals with H4K5/K8/K12/K16-tetra-acetylated NCP (human) (UniProt P04908). The series is described as above.
Series [4] deals with H4K5/K8-diacetylated NCP (human) (UniProt P04908). The series is described as above.
The target in series [5] is H3K9-acetylated NCP (human) (UniProt P04908). Described as above.
Series [6] deals with H4K12-acetylated NCP (human) (UniProt P04908). The series is described as above.
Series [7] addresses H4K8-acetylated NCP (human) (UniProt P04908). The description is as above.
Series [8] addresses H4K5-acetylated NCP (human) (UniProt P04908). The description is as above.
[9] abbreviates: histone H4K5ac/K8ac/K12ac/K16ac.

AF9-YEATS domain, polyhistidine-tagged (microscale thermophoresis), sequence (P42568 1-138): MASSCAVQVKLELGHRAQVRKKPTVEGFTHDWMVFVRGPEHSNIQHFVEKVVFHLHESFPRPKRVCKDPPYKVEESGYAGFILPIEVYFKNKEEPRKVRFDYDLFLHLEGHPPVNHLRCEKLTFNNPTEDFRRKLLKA

As to H4K8ac NCP, the K half in the series with AF9-YEATS (human) (histone H4K8ac) was 75 nM.

As to unmodified NCP, the K half in the series on YEATS2-YEATS (human) is 2.6 µM; with AF9-YEATS (human), 140 nM; with GAS41-YEATS (human), 1400 nM.

On to H4K5ac/K8ac/K12ac/K16ac NCP, for which the binding signal (fold K1/2 increase vs WT) in the series with AF9-YEATS E57A (human) (setting [9]) was found to be 1.5. This substance yielded a K half in the series on AF9-YEATS (human) (setting [9]) of 25 nM.

In series [1], “YEATS2-YEATS domain, polyhistidine-tagged (microscale thermophoresis) (from UniProt Q9ULM3 200-349) (domain or fragment)” showed a K1/2 (half-saturation concentration) of 2.6 µM.

On to H3K9ac NCP, for which, in the series with AF9-YEATS (human) (histone H3K9ac), the K half came out at 16 nM.

Consider “AF9-YEATS E57A mutant (from UniProt P42568 1-138) (domain or fragment)”, for which the fold increase in K1/2 against the WT in [2] was determined as 1.3 fold; in [3], 1.5 fold; in series [4] it was 1.8 fold.

For H4K5ac NCP, the K half in the series on AF9-YEATS (human) (histone H4K5ac) was found to be 120 nM.

In the series with AF9-YEATS (human) (histone H4K12ac), H4K12ac NCP displayed a K half of 140 nM.

In the case of nucleosome-free 147-bp dsDNA, the values for the K half in the series on YEATS2-YEATS (human), with AF9-YEATS (human) and with GAS41-YEATS (human) were 8.2 µM, 12000 nM and > 50000 nM, respectively.

Regarding “AF9-YEATS domain, polyhistidine-tagged (microscale thermophoresis) (from UniProt P42568 1-138) (domain or fragment)”, the K1/2 (half-saturation concentration) in [5] was found to be 16 nM; in series [6] it was 140 nM; in series [1], 0.14 µM; in series [2], 41 nM; in series [3] it was 25 nM; in series [4], 30 nM. Also, the K1/2 (half-saturation concentration) in series [7] stood at 75 nM; in series [8], 120 nM.

H4K5ac/K8ac NCP showed a binding signal (fold K1/2 increase vs WT) in the series on AF9-YEATS E57A (human) (histone H4K5ac/K8ac) of 1.8. The K half in the series with AF9-YEATS (human) (histone H4K5ac/K8ac) is 30 nM.

For the substance H4K8ac/K12ac NCP, the binding signal (fold K1/2 increase vs WT) in the series with AF9-YEATS E57A (human) (histone H4K8ac/K12ac) turned out to be 1.3. In the series on AF9-YEATS (human) (histone H4K8ac/K12ac), the K half was 41 nM.

The substance “GAS41-YEATS domain, polyhistidine-tagged (microscale thermophoresis) (from UniProt O95619 15-159) (domain or fragment)” came in with a K1/2 (half-saturation concentration) in [1] of 1.4 µM.
